Molecular target: Histone H3K4me3 peptide (Homo sapiens, UniProt P68431)

- Kd: 7.9 µM
B1: ING4 PHD (protein)
chain: PNEPTYCLCHQVSYGEMIGCDNPDCSIEWFHFACVGLTTKPRGKWFCPRCSQERKK

Reference: publication PMC2650391 (2009)
